Legend:
[1] = biological target: fibrinogen related-protein 30 (FBN30), insect cell-expressed recombinant (Anopheles gambiae); assay: non-reducing and reducing SDS-PAGE with western blot; 12% SDS-PAGE without or with beta-ME of culture medium of transfected Hi5 cells; FBN30 detected with anti-FBN30 antibody; covalent (disulfide) dimer
[2] = biological target: fibrinogen related-protein 30 (FBN30), insect cell-expressed recombinant (Anopheles gambiae); assay: SEC; concentrated Hi5 medium on a Superdex 200 10/300 GL column, PBS pH 7.4, 0.4 mL/min, calibrated with protein standards; FBN30 in the fractions quantified by ELISA with anti-FBN30; octamer of four disulfide-linked homodimers

**Q.** Which stoichiometry N [1] does the source give for “fibrinogen related-protein 30 (FBN30), insect cell-expressed recombinant (natural protein)” here?
**A.** The stoichiometry N was 2.

**Q.** What about the stoichiometry N [2] of the same substance?
**A.** Its stoichiometry N is 8.

Source: article PMC5561218
